Data as given in patent US20240018502A1.
Where a chain is given by its changes, count along the chain named. In names and notes the source's numbering stands.

B1: MTSP-1 Q38H/I41A/D60bT/F60eK/ins97aE/F97T/T98G/F99L/C122S/Q175L/Q192E (enzyme)
chain: VVGGTDADEGEWPWQVSLHALGHGHACGASLISPNWLVSAAHCYIDTRGKRYSDPTQWTAFLGLHDQSQRSAPGVQERRLKRIISHPFFNDTEGLDYDIALLELEKPAEYSSMVRPISLPDASHVFPAGKAIWVTGWGHTQYGGTGALILQKGEIRVINQTTCENLLPQLITPRMMCVGFLSGGVDSCEGDSGGPLSSVEADGRIFQAGVVSWGDGCAQRNKPGVYTRLPLFRDWIKENTGV
B2: MTSP-1 I41T/D60bY/F97T/ins97aE/T98G/F99L/C122S/Q175L/Q192G (enzyme)
chain: B1 chain with H23Q, A26T, T47Y, K50F, E189G
B3: MTSP-1 Q38H/I41A/D60bV/F60eR/ins97aE/F97T/T98G/F99L/C122S/G151N/Q175L/Q192D (enzyme)
chain: B1 chain with T47V, K50R, G146N, E189D
B4: MTSP-1 Q38R/I41V/D60bV/F60eV/Y60gF/ins97aE/F97T/T98G/F99L/C122S/Q175L/Q192G (enzyme)
chain: B1 chain with H23R, A26V, T47V, K50V, Y52F, E189G
B5: MTSP-1 Q38L/I41T/D60bA/F60eL/ins97aV/F97D/T98P/F99L/C122S/G151H/Q175M/Q192T (enzyme)
chain: B1 chain with H23L, A26T, T47A, K50L, T92D, E93V, G94P, G146H, L170M, E189T
B6: MTSP-1 Q38T/I41S/D60bG/F60eM/ins97aV/F97D/T98P/F99L/C122S/G151N/Q175S/Q192S (enzyme)
chain: B1 chain with H23T, A26S, T47G, K50M, T92D, E93V, G94P, G146N, L170S, E189S
B7: MTSP-1 Q38H/H40P/I41A/F60eQ/Y60gW/F97T/ins97aE/T98G/F99L/C122S/Q175L/Q192D (enzyme)
chain: B1 chain with H25P, T47D, K50Q, Y52W, E189D
B8: MTSP-1 Q38H/I41A/D60bE/F60eH/Y60gW/F97T/ins97aE/T98G/F99L/C122S/G151N/Q175L/Q192D (enzyme)
chain: B1 chain with T47E, K50H, Y52W, G146N, E189D
B9: MTSP-1 Q38W/I41S/D60bG/F60eI/F97D/ins97aV/T98P/F99L/C122S/G151N/Q175A/Q192D (enzyme)
chain: B1 chain with H23W, A26S, T47G, K50I, T92D, E93V, G94P, G146N, L170A, E189D
B10: MTSP-1 Q38L/H40P/I41T/D60bV/F60eH/Y60gL/ins97aE/F97T/T98G/F99L/C122S/Q175L/Q192A (enzyme)
chain: B1 chain with H23L, H25P, A26T, T47V, K50H, Y52L, E189A
B11: MTSP-1 Q38H2I/I41S/F97T/ins97aE/T98G/F99L/C122S/Q175L/Q192V (enzyme)
chain: B1 chain with H23K, A26S, T47D, K50F, E189V
B12: MTSP-1 Q38H/I41A/D60bV/F60eH/ins97aE/F97T/T98G/F99L/C122S/Q175L/Q192D (enzyme)
chain: B1 chain with T47V, K50H, E189D
B13: MTSP-1 Q38D/I41S/D60bT/F60eR/ins97aV/F97D/T98P/F99L/C122S/G151K/Q175S/Q192V (enzyme)
chain: B1 chain with H23D, A26S, K50R, T92D, E93V, G94P, G146K, L170S, E189V
B14: MTSP-1 Q38R/I41S/D60bY/F60eD/ins97aV/F97D/T98P/F99L/C122S/G151N/Q175M/Q192A (enzyme)
chain: B1 chain with H23R, A26S, T47Y, K50D, T92D, E93V, G94P, G146N, L170M, E189A
B15: MTSP-1 Q38H/I41A/D60bT/F60eR/F97T/ins97aE/T98G/F99L/C122S/Q175L/Q192V (enzyme)
chain: B1 chain with K50R, E189V
B16: MTSP-1 Q38L/I41A/D60bH/F60eT/ins97aV/F97D/T98P/F99L/C122S/G151Q/Q175A/Q192G (enzyme)
chain: B1 chain with H23L, T47H, K50T, T92D, E93V, G94P, G146Q, L170A, E189G
B17: MTSP-1 Q38W/I41A/ins97aV/F97D/T98P/F99L/C122S/G151T/Q175S/Q192D (enzyme)
chain: B1 chain with H23W, T47D, K50F, T92D, E93V, G94P, G146T, L170S, E189D
B18: MTSP-1 Q38H/I41S/D60bF/F60eV/F97D/ins97aV/T98P/F99L/C122S/G151N/Q175L/Q192A (enzyme)
chain: B1 chain with A26S, T47F, K50V, T92D, E93V, G94P, G146N, E189A
B19: MTSP-1 Q38E/I41S/D60bT/F60eR/F97T/ins97aE/T98G/F99L/C122S/Q175L/Q192V (enzyme)
chain: B1 chain with H23E, A26S, K50R, E189V
B20: MTSP-1 Q38L/I41T/D60bR/F60eL/Y60gM/F97T/ins97aE/T98G/F99L/C122S/G151N/Q175L/Q192G (enzyme)
chain: B1 chain with H23L, A26T, T47R, K50L, Y52M, G146N, E189G
B21: MTSP-1 Q38L/I41T/D60bV/F60eH/Y60gL/ins97aE/F97T/T98G/F99L/C122S/Q175L/Q192S (enzyme)
chain: B1 chain with H23L, A26T, T47V, K50H, Y52L, E189S
B22: MTSP-1 Q38H/I41A/F60eH/Y60gW/ins97aE/F97T/T98G/F99L/C122S/Q175L/Q192A (enzyme)
chain: B1 chain with T47D, K50H, Y52W, E189A
B23: MTSP-1 Q38H/I41A/D60bV/F60eA/Y60gW/F97T/ins97aE/T98G/F99L/C122S/Q175L/Q192V (enzyme)
chain: B1 chain with T47V, K50A, Y52W, E189V
B24: MTSP-1 Q38H/I41A/D60bT/F60eK/Y60gW/F97T/ins97aE/T98G/F99L/C122S/Q175L/Q192A (enzyme)
chain: B1 chain with Y52W, E189A
B25: MTSP-1 Q38H/I41A/D60bK/F60eK/Y60gW/F97T/ins97aE/T98G/F99L/C122S/Q175L/Q192D (enzyme)
chain: B1 chain with T47K, Y52W, E189D
B26: MTSP-1 Q38H/I41S/D60bT/F60eT/F97D/ins97aV/T98P/F99L/C122S/G151N/Q175L/Q192V (enzyme)
chain: B1 chain with A26S, K50T, T92D, E93V, G94P, G146N, E189V
B27: MTSP-1 Q38H/I41S/D60bT/F60eS/Y60gW/F97D/ins97aV/T98P/F99L/C122S/G151H/Q175A/Q192D (enzyme)
chain: B1 chain with A26S, K50S, Y52W, T92D, E93V, G94P, G146H, L170A, E189D
B28: MTSP-1 Q38H/I41A/F97T/ins97aE/T98G/F99L/C122S/Q175L/Q192G (enzyme)
chain: B1 chain with T47D, K50F, E189G
B29: MTSP-1 Q38R/I41T/D60bH/ins97aE/F97T/T98G/F99L/C122S/Q175L/Q192G (enzyme)
chain: B1 chain with H23R, A26T, T47H, K50F, E189G

Target: plasma purified human complement protein C3 (human) (UniProt P01024)
Sequence (P01024 23-667, chain 1 of 2): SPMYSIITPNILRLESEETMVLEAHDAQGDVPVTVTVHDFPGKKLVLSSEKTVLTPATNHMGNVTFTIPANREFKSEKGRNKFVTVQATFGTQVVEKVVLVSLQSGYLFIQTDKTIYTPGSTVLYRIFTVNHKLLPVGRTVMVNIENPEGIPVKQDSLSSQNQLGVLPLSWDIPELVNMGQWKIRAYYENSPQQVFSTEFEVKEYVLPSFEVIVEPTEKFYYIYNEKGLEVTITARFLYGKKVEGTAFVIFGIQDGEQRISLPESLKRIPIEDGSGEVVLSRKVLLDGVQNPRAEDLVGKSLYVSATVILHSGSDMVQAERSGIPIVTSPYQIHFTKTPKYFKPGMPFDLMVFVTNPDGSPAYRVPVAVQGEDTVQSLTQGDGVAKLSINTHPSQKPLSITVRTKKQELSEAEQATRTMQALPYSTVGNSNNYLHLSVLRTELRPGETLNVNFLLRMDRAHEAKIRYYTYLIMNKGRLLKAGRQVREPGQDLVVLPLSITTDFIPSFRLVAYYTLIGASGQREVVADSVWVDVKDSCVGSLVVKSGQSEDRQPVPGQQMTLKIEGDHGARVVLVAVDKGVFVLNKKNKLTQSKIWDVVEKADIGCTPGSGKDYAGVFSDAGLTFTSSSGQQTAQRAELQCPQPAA
Sequence (P01024 672-1663, chain 2 of 2): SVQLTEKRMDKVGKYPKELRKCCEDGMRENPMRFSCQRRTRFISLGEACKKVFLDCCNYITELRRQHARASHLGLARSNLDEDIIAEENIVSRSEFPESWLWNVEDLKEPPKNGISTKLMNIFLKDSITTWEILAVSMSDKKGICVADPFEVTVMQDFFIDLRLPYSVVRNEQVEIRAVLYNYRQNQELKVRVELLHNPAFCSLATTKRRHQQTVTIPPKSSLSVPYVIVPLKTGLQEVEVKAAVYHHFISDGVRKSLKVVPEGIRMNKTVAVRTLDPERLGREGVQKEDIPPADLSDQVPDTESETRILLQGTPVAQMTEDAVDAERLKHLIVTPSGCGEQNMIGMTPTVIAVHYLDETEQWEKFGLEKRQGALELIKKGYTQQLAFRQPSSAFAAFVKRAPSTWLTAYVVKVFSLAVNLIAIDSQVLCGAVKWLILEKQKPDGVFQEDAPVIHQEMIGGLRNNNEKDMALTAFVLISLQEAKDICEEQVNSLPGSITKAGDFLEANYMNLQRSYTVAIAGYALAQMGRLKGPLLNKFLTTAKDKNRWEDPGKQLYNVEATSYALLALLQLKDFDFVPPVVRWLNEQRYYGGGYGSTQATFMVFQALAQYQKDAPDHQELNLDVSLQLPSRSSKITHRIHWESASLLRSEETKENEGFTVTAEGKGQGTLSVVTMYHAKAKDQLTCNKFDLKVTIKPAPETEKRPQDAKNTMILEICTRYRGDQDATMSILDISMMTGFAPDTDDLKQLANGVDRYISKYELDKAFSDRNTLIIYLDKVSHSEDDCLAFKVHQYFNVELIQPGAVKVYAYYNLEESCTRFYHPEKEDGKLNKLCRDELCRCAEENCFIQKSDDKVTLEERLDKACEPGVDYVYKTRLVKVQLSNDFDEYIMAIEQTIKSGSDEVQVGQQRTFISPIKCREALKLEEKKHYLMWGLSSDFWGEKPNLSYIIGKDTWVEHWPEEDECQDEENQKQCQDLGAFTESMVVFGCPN
Assay: cell-based or functional assay

Binder | EC50 of hC3 cleavage [nM]
B1 | 14.6
B2 | 3.88
B3 | 6.06
B4 | 18.3
B5 | 20.2
B6 | 28.8
B7 | 5.04
B8 | 8.28
B9 | 43.1
B10 | 6.47
B11 | 43
B12 | 5.31
B13 | 48.1
B14 | 3.22
B15 | 6.54
B16 | 5.73
B17 | 68
B18 | 1.57
B19 | 32.7
B20 | 23.7
B21 | 13.1
B22 | 3.09
B23 | 1.57
B24 | 2.71
B25 | 22.3
B26 | 5.08
B27 | 22.6
B28 | 3.9
B29 | 26.2
